Consider 5 molecules from US20250382384A1 (BEONE MEDICINES I, published 2025).

In assay [1] the target is T1, full-length human MUC1 on stably transfected cells (human, UniProt P15941 24-1255).
T1 construct: also called HEK293/human MUC1; HEK293-hMUC1
Put plainly: FACS (iQue3) on HEK293-hMUC1 cells.

Assay [2] has as its target T2, native human MUC1 on tumour cell lines (human, UniProt P15941 24-1255).
T2 construct: whole, on cells; also called native MUC1; ZR-75
Put plainly: FACS on live ZR-75 cells.

In another assay the target is T3, MUC1-SEA-mIgG2a (human; mouse, UniProt P15941 1036-1155).
T3 construct: also called huMUC1-SEA-mIgG2a; human MUC1-mFc; not shown: Fc domain of mouse IgG2a fused to the C-terminus of the SEA domain
T3 sequence: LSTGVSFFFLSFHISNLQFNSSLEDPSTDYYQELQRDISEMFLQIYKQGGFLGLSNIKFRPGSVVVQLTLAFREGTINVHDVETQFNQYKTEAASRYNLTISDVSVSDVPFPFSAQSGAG
Put plainly: SPR (Biacore 8K, 25 C), MUC1-SEA-mIgG2a captured by anti-mouse Fc, scFv analyte. Background: In SPR one partner is held on a chip, and binding of the other changes the refractive index at the surface.

In assay [3] the target is T1, full-length human MUC1 on stably …. Put plainly: FACS on HEK293-MUC1 cells, anti-His detection.

T1 sequence (P15941 24-1255 limits assumed): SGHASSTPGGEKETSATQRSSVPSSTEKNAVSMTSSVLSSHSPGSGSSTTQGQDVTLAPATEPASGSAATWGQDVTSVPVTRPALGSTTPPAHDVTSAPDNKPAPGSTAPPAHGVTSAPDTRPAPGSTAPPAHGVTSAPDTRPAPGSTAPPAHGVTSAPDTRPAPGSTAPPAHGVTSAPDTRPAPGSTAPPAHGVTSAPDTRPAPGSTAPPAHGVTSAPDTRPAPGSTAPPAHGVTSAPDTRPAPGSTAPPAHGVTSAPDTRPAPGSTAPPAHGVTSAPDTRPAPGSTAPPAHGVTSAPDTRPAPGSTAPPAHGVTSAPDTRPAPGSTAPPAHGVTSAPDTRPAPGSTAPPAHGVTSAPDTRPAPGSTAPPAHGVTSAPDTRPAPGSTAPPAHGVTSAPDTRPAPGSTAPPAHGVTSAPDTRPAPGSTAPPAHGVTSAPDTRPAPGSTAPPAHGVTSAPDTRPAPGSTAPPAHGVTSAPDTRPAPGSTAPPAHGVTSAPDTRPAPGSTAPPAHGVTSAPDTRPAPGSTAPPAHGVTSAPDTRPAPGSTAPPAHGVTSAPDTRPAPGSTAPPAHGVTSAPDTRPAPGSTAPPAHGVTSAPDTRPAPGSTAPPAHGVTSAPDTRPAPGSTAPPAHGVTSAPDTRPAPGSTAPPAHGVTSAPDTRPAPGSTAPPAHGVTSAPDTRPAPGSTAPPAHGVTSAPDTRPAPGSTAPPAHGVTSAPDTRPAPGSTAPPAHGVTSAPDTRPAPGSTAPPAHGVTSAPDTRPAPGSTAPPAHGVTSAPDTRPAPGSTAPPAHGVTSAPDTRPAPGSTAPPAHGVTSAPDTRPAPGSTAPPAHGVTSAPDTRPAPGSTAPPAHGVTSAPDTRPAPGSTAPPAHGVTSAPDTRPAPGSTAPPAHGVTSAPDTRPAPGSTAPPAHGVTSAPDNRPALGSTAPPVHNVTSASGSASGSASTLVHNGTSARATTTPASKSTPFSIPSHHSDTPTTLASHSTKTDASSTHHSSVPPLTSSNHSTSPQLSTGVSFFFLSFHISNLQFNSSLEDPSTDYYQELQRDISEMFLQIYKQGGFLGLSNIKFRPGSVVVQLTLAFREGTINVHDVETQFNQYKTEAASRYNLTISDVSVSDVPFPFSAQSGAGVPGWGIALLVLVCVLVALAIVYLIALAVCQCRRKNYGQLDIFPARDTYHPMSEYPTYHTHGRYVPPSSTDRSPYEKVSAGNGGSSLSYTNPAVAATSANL
T2 sequence (P15941 24-1255): as the sequence (P15941 24-1255 limits assumed) above

B1: huBG138P-Hz1 (antibody, V domains shown)
VH: QVQLVQSGAEVKKPGASVKVSCKASGYTFTTYTMHWVRQAPGQRLEWMGYINPGSDYTHYNQKFKDRVTITADTSASTAYMELSSLRSEDTAVYYCARQGNYAAYYFDYWGQGTLVTVSS
VL: DIQMTQSPSSLSASVGDRVTITCRASGNIHNFLVWYQQKPGKVPKLLIYNAKTLTSGVPSRFSGSGSGTDYTLTISSLQPEDVATYYCQNFWNVPFTFGQGTKLEIK
notes: humanized; constant regions not restated (IgG1/Ckappa vector used for the first round)
As usually defined, the EC50 (read off the curve) is the concentration that produces a half-maximal response. B1: in assay [1], the “EC50 (read off the curve)” value is around 5 nM.

B2: huBG138P-Hz4 (antibody, V domains shown)
VH: QVQLVQSGAEVKKPGASVKVSCKASGYTFTTYTMHWVRQAPGQGLEWMGYINPGSDYTHYNQKFKDRVTITADKSASTAYMELSSLRSEDTAVYYCARQGNYAAYYFDYWGQGTLVTVSS
VL: DIQMTQSPSSLSASVGDRVTITCRASGNIHNFLVWYQQKPGKSPKLLIYNAKTLTSGVPSRFSGSGSGTQYTLTISSLQPEDVATYYCQNFWNVPFTFGQGTKLEIK
notes: humanized; constant regions not restated
Consider B2, for which, in assay [1], the concentration giving a half-maximal response (EC50 (read off the curve)) is around 3 nM.

B3: huBG138P-Hz3 (antibody, V domains shown)
VH: QVQLVQSGAEVKKPGASVKVSCKASGYTFTTYTMHWVRQAPGQGLEWMGYINPGSDYTHYNQKFKDRVTITADKSASTAYMELSSLRSEDTAVYYCARQGNYAAYYFDYWGQGTLVTVSS
VL: DIQMTQSPSSLSASVGDRVTITCRASGNIHNFLVWYQQKPGKVPKLLIYNAKTLTSGVPSRFSGSGSGTDYTLTISSLQPEDVATYYCQNFWNVPFTFGQGTKLEIK
notes: as for B2
As for B3, the “EC50 (read off the curve)” value in assay [1] was around 5 nM.

B4: huBG219P-Bz0 (antibody, IgG1, V domains shown)
VH: EVQLLESGGGLVQPGGSLRLSCAASGFTFNDYIMSWVRQAPGKGLEWVATVSSGGDNTYYPDSVKGRFTISRDNSKNTLYLQMNSLRAEDTAVYYCTRYGGLGAMDYWGQGTLVTVSS
VL: DIQMTQSPSSLSASVGERVTITCRASGNIHNYLTWYQQKPGKSPKLLVYNAKTLADGVPSRFSGSGSGPDYTLTISSLQPEDFATYYCQHFWSVPYTFGQGTKLEIK
notes: human wild-type IgG1 / kappa
Usually EC50 stands for the concentration giving half of the maximal effect. B4 had a concentration for a half-maximal effect (EC50) in assay [2] of 20.9 nM.

B5: scFv3-20P (scFv)
scFv: QVQLVQSGAEVKKPGASVKVSCKASGYTFTNYWINWVRQAPGQGLEWMGEIDPSDAYTNNNQKFQGRVTMTVDTSTSTAYMELSSLRSEDTAVYYCARGRRTGFAYWGQGTLVTVSSGGGGSGGGGSGGGGSGGGGSDIQMTQSPSSLSASVGDRVTITCRASENIYSNLAWYQQKPGKAPKLLIYAATNLADGVPSRFSGSGSGTDYTLTISSLQPEDFATYYCQHFWGTPYTFGQGTKLEIKHHHHHH
notes: Humanized BG346P scFv; His tag from the stated format of the BG346P scFv constructs; also called BG346P-scFv3-20P
By Kd is commonly meant the equilibrium constant for the complex coming apart. Usually koff stands for the first-order rate constant of dissociation. A high value points to fast dissociation. One may read the kon as the second-order rate constant of association. A higher kon goes with faster complex formation. For B5, in the assay with MUC1-SEA-mIgG2a, the Kd was 67.1 nM, the dissociation rate constant (koff) came out at 0.0202 s⁻¹ and the kon was 301000 M⁻¹ s⁻¹. Also, in assay [3], the EC50 came out at 16.1 nM.
